Assay results: the supplement of paper PMC10567573
± gives the standard deviation.

Test: protein stability index of a GFP-peptide fusion (GPS, HEK-293T) (PSI 1-6); higher = more stable
Settings: c terminus: a fixed tail appended
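Also: 24-mer peptide tiles fused after GFP, lentivirally expressed, FACS-sorted into six equal bins by GFP/DsRed ratio, decoded by Illumina sequencing, PSI is the read-weighted mean bin number.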

| Sequence | protein stability index (treatment: DMSO) | protein stability index (treatment: MLN4924 1 uM, 8 h) |
| --- | --- | --- |
| MKACQEDDVRLLCHLTPSIYTEFP [INTS3] | 2.62 ± 0.28 | 2.55 ± 0.25 |
| RNLETQHKVLELTAENERLQKKVE [CEBPB] | 5.12 ± 0.57 | 5.49 ± 0.049 |
| VPIPTVNQYLYFLFAPTLIYRDSY [SOAT1] | 3.32 ± 0.3 | 3.24 ± 0.24 |
| NDSDHQSSTSPLMEGTPTIKSKKK [VPS39] | 5.45 ± 0.26 | 5.57 ± 0.25 |
| QLRFQHSQDVSDCYLELFPAHLYF [PLEKHN1] | 2.32 ± 0.54 | 2.27 ± 0.28 |
| WKVRYDTFIVSCKFSPDGKYVVSG [WDR88] | 2.31 ± 0.45 | 2.49 ± 0.14 |
| RAPGAGLGQDRQVPLWGQLLLFLV [EMD] | 2.49 ± 0.17 | 2.09 ± 0.37 |
| KEEEQSCEYETRLPGNHSTSQEIF [ZNF232] | 5.02 ± 0.3 | 5 ± 0.13 |
| QWWASVGMDDFLGVYSMPAGTKVF [TLE6] | 2.23 ± 0.82 | 2.26 ± 0.45 |
| LSQMGAQSSGKILLCPLCQEEEQA [TRIM15] | 3.85 ± 0.5 | 4.39 ± 0.23 |
| QPRGGVSSRIEQGEWGGRHPSWPW | 2.99 ± 0.44 | 3 ± 0.68 |
| KMKKLGQAMEEDLIVGLQGMDLNL [HDAC6] | 3.86 ± 0.24 | 3.5 ± 0.43 |
| LGLRQHHCRKCGQAVCGKCSSKRS [WDFY1] | 4.28 ± 0.29 | 4.26 ± 0.29 |
| AVTDLLGRRQRKSEKRRDPPNGPN [WASL] | 4.06 ± 0.14 | 4.31 ± 0.29 |
| SGRLSASWEPLSGPSTPSPVAAQF [FCHO1] | 3.14 ± 0.25 | 3.02 ± 0.23 |
| IDPLLYMTEWFMCAFSRTLPWSSV [TBC1D10A] | 3.43 ± 0.23 | 3.16 ± 0.27 |
| ALPVPVIVSNFNYFYHRETENEEQ [KCNA4] | 3.54 ± 0.15 | 3.57 ± 0.17 |
| RDEVAFHTAKCEKLQKEKEELERR [MTUS2] | 5.61 ± 0.17 | 5.44 ± 0.33 |
| TCTDRSGISTGHWSGEVKDKNVQV [FUT8] | 4.51 ± 0.21 | 4.49 ± 0.16 |
| IYEFWENSSVWNSHLQTNYSKTFQ [NECAB1] | 2.28 ± 0.31 | 2.16 ± 0.26 |
| KDSVMQQNLVYYRFHRARWGLEEE [P3H4] | 2.51 ± 0.28 | 2.43 ± 0.085 |
| SPPKSPRTTVHDKSAHQTHSSWTP [DNAJC4] | 4.36 ± 0.15 | 4.41 ± 0.2 |

| Sequence | protein stability index (treatment: DMSO) | protein stability index (treatment: MLN4924 1 uM, 8 h) |
| --- | --- | --- |
| SLPTTAPSNSSSLTLSGIKEDNSL [MYBL2] | 4.91 ± 0.17 | 5.2 ± 0.13 |
| IEIEDEAEKWQKEKDRIKSFTTNE [TRIM29] | 4.94 ± 0.17 | 4.96 ± 0.16 |
| PGNRTCTGTSKRYQLCRVQECPPD [ADAMTSL2] | 3.61 ± 0.32 | 3.69 ± 0.045 |
| QLQCSPAELQAELLHSQARLAELE [FBF1] | 3.88 ± 0.41 | 3.98 ± 0.26 |
| DEDAGLPRPVQLDETHPYTVTSVS [NEK8] | 5.12 ± 0.19 | 5.23 ± 0.18 |
| DEPGKGGFWRIDPQYAERLLSGAF [FOXJ1] | 2.6 ± 0.25 | 2.73 ± 0.34 |
| QSSHYLQWILDKQDLLKERQKDLK [CCNC] | 2.87 ± 0.36 | 3.16 ± 0.27 |
| KNLLHAEFLRVQEERILHQQVKCI [VPS39] | 2.58 ± 0.16 | 2.71 ± 0.26 |
| ITERDKRPEGYNLKDEEGKLKDLS [PPP2R2C] | 5.51 ± 0.23 | 5.54 ± 0.13 |
| DEAGGGAEGDSWEEEGFGSSSPVK [WEE1] | 5.3 ± 0.068 | 5.35 ± 0.26 |
| ESEGSESSGRSCRNERSIQEKLQV [SMG5] | 4.82 ± 0.12 | 4.75 ± 0.27 |
| GNISGEFWLGNEALHSLTQAGDYS [TNXB] | 3.21 ± 0.091 | 3.36 ± 0.34 |
| IYSLRNKEFKSALCKIVRRTISLL [OR10K2] | 2.74 ± 1.2 | 2.17 ± 0.49 |
| MVFPAKRFCLVPSMEGVRWAFSCG [AASDHPPT] | 2.74 ± 0.79 | 2.77 ± 0.72 |
| QQELETLPTTKMAQTNPTPGSLGP [CRYBA1] | 5.15 ± 0.1 | 5.09 ± 0.13 |
| QQFRADPSTASLLLCPGGLDHKLN [TIAF1] | 3.48 ± 0.28 | 3.58 ± 0.34 |
| AVSDGRHMFVWGGYKSNQVRGLYD [KLHDC2] | 2.28 ± 0.58 | 2.27 ± 0.51 |
| NLINQMLTINPAKRITAHEALKHP [CAMK2B] | 2.38 ± 0.32 | 2.23 ± 0.12 |
| APDRATAVATASRLGPYVLLEPEE [TRIB3] | 5.04 ± 0.31 | 5.04 ± 0.24 |
| YGICREPVGLVMEYMETGSLEKLL [RIPK4] | 2.29 ± 0.26 | 2.22 ± 0.4 |
| VMFQRRYYKPGLLMMCFILPTLVP [SCD] | 3.51 ± 0.77 | 2.72 ± 0.71 |
| TFWKEDKAFWKEDNALWERDRNLL [CCDC70] | 2.95 ± 0.12 | 3.2 ± 0.43 |

| Sequence | protein stability index (treatment: DMSO) | protein stability index (treatment: MLN4924 1 uM, 8 h) |
| --- | --- | --- |
| LRGALQQGEAFQRALESELQQLRA [PBXIP1] | 3.56 ± 0.24 | 3.67 ± 0.23 |
| VLMIAIQLISRMEYVHSKNLIYRD [CSNK1G3] | 2.86 ± 0.13 | 2.72 ± 0.44 |
| AQSLPGPCAAAREGRLERRECGLA [IRX6] | 4.42 ± 0.2 | 4.53 ± 0.38 |
| LHSSILTCTLLLLYSLAPTMGAVV [MFSD9] | 3.36 ± 0.4 | 2.94 ± 0.24 |
| VNSVCWASLNHLDSHILLCLMGLA [DCAF4] | 2.51 ± 0.63 | 2.69 ± 0.36 |
| DRLNEQEGVPSVFNPPPSRPLQVN [FAF2] | 4.23 ± 0.28 | 4.25 ± 0.1 |
| PSLEDISCNTWPSMPSYSSCTVTT [TBX5] | 3.18 ± 0.21 | 3.41 ± 0.24 |
| LKSISAEEILTLFCGAPPVTPIIV [PHTF1] | 3.16 ± 0.29 | 2.62 ± 0.53 |
| SPTGLSPYLRFGCLSCRLFYFKLT [CRY1] | 1.84 ± 0.27 | 2.14 ± 0.43 |
| ISTSGQAGTSSHGCWAWPLAGLSV [PXN] | 2.33 ± 0.47 | 2.25 ± 0.26 |
| EANSAKVQEDLEAEFQSLFSLLEE [FSD1] | 5.02 ± 0.09 | 5.05 ± 0.12 |
| IRDLDVVVVSVAGAFRKGKSFILD [ATL3] | 2.3 ± 0.64 | 2.34 ± 0.45 |
| CIYSEVMEALDLQPGLSFLNLGSG [PCMTD2] | 2.29 ± 0.34 | 2.33 ± 0.44 |
| VEMLCDQAWGSMLEVPAGSRLNLT [CCDC3] | 2.75 ± 0.28 | 2.96 ± 0.31 |
| SLRSYLKRRGPQRSVDVVVSSVFL [PHTF1] | 2.48 ± 0.32 | 2.09 ± 0.24 |
| GPWQLNVFVCRVSAVLFYVNMYVS [P2RY14] | 2.77 ± 0.36 | 2.72 ± 0.79 |
| GVVQALIVGYAFHFPHLLSPQIQR [TMEM175] | 3.53 ± 0.28 | 3.25 ± 0.25 |
| AGIMLLALVCLLSCLLPSSEAKLY [SPACA3] | 2.94 ± 0.12 | 3.25 ± 0.48 |
| RGEGIQAPSFSSYLYFLFCPTLIY [SOAT2] | 3.49 ± 0.45 | 3.36 ± 0.69 |
| KNDGRIDAQEIMQSLRDLGVKISE [SLC25A25] | 3.19 ± 0.21 | 3.29 ± 0.27 |
| TMGAVVLSSTLLSFSTAIGRTCIT [MFSD9] | 2.98 ± 0.48 | 3.22 ± 0.29 |
